Assay results as given in article PMC9266650.

Experiments:
[1] = molecular target: Skeletal actin, unmodified (0% ADPR-actin control) (not stated (purified from rabbit or chicken skeletal muscle)) (UniProt P68135)
[2] = molecular target: T148-ADP-ribosylated-actin (100% TccC3-ADP-ribosylated actin) (not stated (purified from rabbit or chicken skeletal muscle)) (UniProt P68135); test: fluorescence polarisation

time at which 50% of actin is polymerized (t1/2); 2.5 µM pyrene-labeled (5%) G-actin, 0% modified, with 2.5 µM TMSB4 [1]: 2.04 h
fold reduction of affinity against unmodified actin [2]: 6.4 fold
Substance: Thymosin-β4 (peptide)
